B1: EHMT1 (parent)
chain: EEINKNISDFGRQQLLPPFPSLHQ

This is an account of results in the supplement of paper PMC10567573.
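Further: lentivirally expressed fusions sorted by FACS into six bins by GFP to DsRed ratio, PSI derived from sequencing read proportions per bin multiplied by bin number.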

Variants of B1 are the subject of the data set. The data set can be described thus: protein stability index of a GFP-peptide fusion (GPS, HEK-293T) (PSI 1-6); higher = more stable. Particulars: c terminus: a fixed tail appended.
Consider EEINKNISDFGDQQLLPPFPSLHQ, for which the protein stability index worked out at 3.64.

With EEINKNISDFGEQQLLPPFPSLHQ, the protein stability index came out at 3.46.

For the variant EEINKNISDFGNQQLLPPFPSLHQ, the protein stability index turned out to be 3.5.

Regarding EEINKNISDFGPQQLLPPFPSLHQ, the protein stability index amounted to 3.38.

For the variant EEINKNISTFGRQQLLPPFPSLHQ, the protein stability index was 2.61.

Consider EEINKNISWFGRQQLLPPFPSLHQ, for which the protein stability index turned out to be 2.15.

With EEINKNISNFGRQQLLPPFPSLHQ, the protein stability index is 2.43.

For the variant EEINKNISQFGRQQLLPPFPSLHQ, the protein stability index turned out to be 2.63.

Take EEINKNISYFGRQQLLPPFPSLHQ: the protein stability index was determined as 2.4.

As to EEINKNISHFGRQQLLPPFPSLHQ, the protein stability index came to 2.41.

Take EEINKNISLFGRQQLLPPFPSLHQ: the protein stability index worked out at 2.58.

For the variant EEINKNISAFGRQQLLPPFPSLHQ, the protein stability index came to 2.38.

On to EEINKNISDFGRQQKLPPFPSLHQ, for which the protein stability index was determined as 3.07.

Consider EEINKNISDFGRQQSLPPFPSLHQ, for which the protein stability index was 2.82.

With EEINKNISDFGRQQRLPPFPSLHQ, the protein stability index was determined as 3.28.

As to EEINKNISDFGRQQWLPPFPSLHQ, the protein stability index came to 2.5.

Turning to EEINKNISDFGRQQQLPPFPSLHQ, the protein stability index was 3.3.

As to EEINKNISDFGRQQILPPFPSLHQ, the protein stability index was 2.85.

Regarding EEINKNISDFGRQQFLPPFPSLHQ, the protein stability index turned out to be 2.31.

As for EEINKNISDFGRQFLLPPFPSLHQ, the protein stability index is 2.02.

On to EEINKNISDFGRQVLLPPFPSLHQ, for which the protein stability index came to 2.77.

EEINKNISDFGRSQLLPPFPSLHQ: the protein stability index was 2.75.

With EEINKNISDFGRVQLLPPFPSLHQ, the protein stability index was determined as 2.45.

For EEINKNISDFGRRQLLPPFPSLHQ, the protein stability index worked out at 2.42.

In the case of EEINKNISDFGRIQLLPPFPSLHQ, the protein stability index is 2.19.

On to EEINKNISDFGRFQLLPPFPSLHQ, for which the protein stability index came out at 2.5.

For the variant EEINKNISDFGRKQLLPPFPSLHQ, the protein stability index was found to be 2.59.

Regarding EEINKNISDFGREQLLPPFPSLHQ, the protein stability index stood at 3.38.

On to EEINKNISDFGRDQLLPPFPSLHQ, for which the protein stability index came to 3.25.

EEINKNISDFGRNQLLPPFPSLHQ: the protein stability index was 2.65.

Consider EEINKNISDFGRHQLLPPFPSLHQ, for which the protein stability index was found to be 2.32.

On to EEINKNISDFGRYQLLPPFPSLHQ, for which the protein stability index came out at 2.7.

Take EEINKNISDFLRQQLLPPFPSLHQ: the protein stability index stood at 1.88.

As to EEINKNISDFCRQQLLPPFPSLHQ, the protein stability index is 1.94.

As for EEINKNISDFPRQQLLPPFPSLHQ, the protein stability index came to 2.87.

As to EEINKNISDFHRQQLLPPFPSLHQ, the protein stability index was 2.43.

In the case of EEINKNISDFVRQQLLPPFPSLHQ, the protein stability index was 2.24.

For the variant EEINKNISDFARQQLLPPFPSLHQ, the protein stability index came out at 2.88.

Regarding EQINKNISDFGRQQLLPPFPSLHQ, the protein stability index is 2.36.

Regarding EHINKNISDFGRQQLLPPFPSLHQ, the protein stability index came to 1.96.

With EPINKNISDFGRQQLLPPFPSLHQ, the protein stability index turned out to be 2.65.

As to EWINKNISDFGRQQLLPPFPSLHQ, the protein stability index is 1.73.

Take ERINKNISDFGRQQLLPPFPSLHQ: the protein stability index amounted to 2.17.

In the case of EYINKNISDFGRQQLLPPFPSLHQ, the protein stability index stood at 1.58.

Consider ENINKNISDFGRQQLLPPFPSLHQ, for which the protein stability index worked out at 2.29.

For the variant EKINKNISDFGRQQLLPPFPSLHQ, the protein stability index came to 2.64.

EIINKNISDFGRQQLLPPFPSLHQ: the protein stability index turned out to be 2.14.

With EGINKNISDFGRQQLLPPFPSLHQ, the protein stability index was 2.51.

Turning to ESINKNISDFGRQQLLPPFPSLHQ, the protein stability index amounted to 2.35.

ETINKNISDFGRQQLLPPFPSLHQ: the protein stability index came out at 2.85.

Turning to EAINKNISDFGRQQLLPPFPSLHQ, the protein stability index was found to be 2.3.

For EEINKNISDFGRQQLLPPFPSAHQ, the protein stability index amounted to 3.73.

EEINKNISDFGRQQLLPPFPSCHQ: the protein stability index was found to be 3.82.

Take EEINKNISDFGRQQLLPPFPSYHQ: the protein stability index stood at 2.47.

On to EEINKNISDFGRQQLLPPFPSEHQ, for which the protein stability index stood at 4.75.

Regarding EEINKNISDFGRQQLLPPFPSVHQ, the protein stability index came out at 3.21.

In the case of EEINKNISDFGRQQLLPPFPSDHQ, the protein stability index came to 4.7.

Take EEINKNISDFGRQQLLPPFPSMHQ: the protein stability index stood at 3.1.

For the variant EEINKNISDFGRQQLAPPFPSLHQ, the protein stability index worked out at 3.57.

Turning to EEINKNISDFGRQQLMPPFPSLHQ, the protein stability index stood at 2.79.

For the variant EEINKNISDFGRQQLCPPFPSLHQ, the protein stability index came to 3.26.

Regarding EEINKNISDFGRQQLWPPFPSLHQ, the protein stability index turned out to be 2.65.

On to EEINKNISDFGRQQLYPPFPSLHQ, for which the protein stability index came to 2.45.

With EEINKNISDFGRQQLLQPFPSLHQ, the protein stability index was 3.27.

Turning to EEINKNISDFGRQQLLSPFPSLHQ, the protein stability index worked out at 3.22.

On to EEINKNISDFGRQQLLGPFPSLHQ, for which the protein stability index was 2.83.

Turning to EEINKNISDFGRQQLLEPFPSLHQ, the protein stability index stood at 3.87.

EEINKNISDFGRQQLLIPFPSLHQ: the protein stability index is 1.82.

In the case of EEINKNISDFGRQQLLNPFPSLHQ, the protein stability index came to 2.54.

For the variant EEINKNISDFGRQQLLFPFPSLHQ, the protein stability index came out at 2.02.

With EEINKNIWDFGRQQLLPPFPSLHQ, the protein stability index came to 2.02.

EEINKNIPDFGRQQLLPPFPSLHQ: the protein stability index turned out to be 3.12.

For the variant EEINKNIVDFGRQQLLPPFPSLHQ, the protein stability index is 3.21.

As to EEINKNIADFGRQQLLPPFPSLHQ, the protein stability index turned out to be 3.22.

For the variant EEINKNIMDFGRQQLLPPFPSLHQ, the protein stability index was 2.72.

In the case of EEINKNIHDFGRQQLLPPFPSLHQ, the protein stability index was determined as 2.77.

Consider EEINKNIDDFGRQQLLPPFPSLHQ, for which the protein stability index turned out to be 3.07.

As for EEINKNIEDFGRQQLLPPFPSLHQ, the protein stability index came out at 2.86.

Regarding EEINKNISDFGRQQLLPPFPSLFQ, the protein stability index was determined as 2.38.

On to EEINKNISDFGRQQLLPPFPSLAQ, for which the protein stability index was 3.4.

Regarding EEINKNISDFGRQQLLPPFPSLWQ, the protein stability index turned out to be 2.6.

Turning to EEINKNISDFGRQQLLPPFPSLRQ, the protein stability index turned out to be 3.08.

With EEINKNISDFGRQQLLPPFPSLYQ, the protein stability index was found to be 2.14.

Take EEINKNISDFGRQQLLPPFPSLVQ: the protein stability index is 2.97.

Turning to EEINKNISDFGRQQLLPPFPSLKQ, the protein stability index turned out to be 3.61.

As for EEINKNISDFGRQQLLPPAPSLHQ, the protein stability index came to 4.02.

Consider EEINKNISDFGRQQLLPPCPSLHQ, for which the protein stability index is 4.24.

As to EEINKNISDFGRQQLLPPRPSLHQ, the protein stability index is 4.1.

In the case of EEINKNISDFGRQQLLPPSPSLHQ, the protein stability index was 4.19.

With EEINKNISDFGRQQLLPPWPSLHQ, the protein stability index worked out at 2.01.

Take EEINKNISDFGRQQLLPPKPSLHQ: the protein stability index is 3.99.

Regarding EEINKNISDFGRQQLLPPGPSLHQ, the protein stability index is 4.05.

As to EEINKNISDFGRQQLLPPDPSLHQ, the protein stability index came out at 4.42.

For EEINKNISDFGRQQLLPPNPSLHQ, the protein stability index amounted to 4.37.
